The text below walks through data of patent US20040146507A1 (Genentech, published 2004).

Assay [1] concerns the target T1, human CD11a (human, UniProt P20701 26-1170).
T1 construct: whole, on cells; On Jurkat T-cells or human peripheral blood mononuclear cells, as part of LFA-1; also called CD11a on Jurkat cells; alpha subunit of LFA-1
The experiment in a line: FACScan, Jurkat cells. The procedure:
(§1) Aliquots of 10⁶ Jurkat T-cells were incubated with serial dilutions of humanized and control antibodies in PBS-0.1% BSA-10 mM sodium azide for 45 min at 4° C. The cells were washed and then incubated in fluorescein-conjugated goat anti-human F(ab′)₂ (Organon Teknika, Westchester, Pa.) for 45 min at 4° C. Cells were washed and analysed on a FACScan (Becton Dickinson, Mountain View, Calif.). 8×10³ cells were acquired by list mode and gated by forward light scatter versus side light scatter, thereby excluding dead cells and debris.
To determine which CDR residues were involved in binding to human CD11a an alanine-scan (Cunningham et al., Science 244:1081 (1989)) was performed on the CDR residues of HuIgG1. Each mutant was tested for binding to CD11a on Jurkat cells. In the light chain only CDR-L3 contributes to binding.
Target sequence in this assay (P20701 26-1170): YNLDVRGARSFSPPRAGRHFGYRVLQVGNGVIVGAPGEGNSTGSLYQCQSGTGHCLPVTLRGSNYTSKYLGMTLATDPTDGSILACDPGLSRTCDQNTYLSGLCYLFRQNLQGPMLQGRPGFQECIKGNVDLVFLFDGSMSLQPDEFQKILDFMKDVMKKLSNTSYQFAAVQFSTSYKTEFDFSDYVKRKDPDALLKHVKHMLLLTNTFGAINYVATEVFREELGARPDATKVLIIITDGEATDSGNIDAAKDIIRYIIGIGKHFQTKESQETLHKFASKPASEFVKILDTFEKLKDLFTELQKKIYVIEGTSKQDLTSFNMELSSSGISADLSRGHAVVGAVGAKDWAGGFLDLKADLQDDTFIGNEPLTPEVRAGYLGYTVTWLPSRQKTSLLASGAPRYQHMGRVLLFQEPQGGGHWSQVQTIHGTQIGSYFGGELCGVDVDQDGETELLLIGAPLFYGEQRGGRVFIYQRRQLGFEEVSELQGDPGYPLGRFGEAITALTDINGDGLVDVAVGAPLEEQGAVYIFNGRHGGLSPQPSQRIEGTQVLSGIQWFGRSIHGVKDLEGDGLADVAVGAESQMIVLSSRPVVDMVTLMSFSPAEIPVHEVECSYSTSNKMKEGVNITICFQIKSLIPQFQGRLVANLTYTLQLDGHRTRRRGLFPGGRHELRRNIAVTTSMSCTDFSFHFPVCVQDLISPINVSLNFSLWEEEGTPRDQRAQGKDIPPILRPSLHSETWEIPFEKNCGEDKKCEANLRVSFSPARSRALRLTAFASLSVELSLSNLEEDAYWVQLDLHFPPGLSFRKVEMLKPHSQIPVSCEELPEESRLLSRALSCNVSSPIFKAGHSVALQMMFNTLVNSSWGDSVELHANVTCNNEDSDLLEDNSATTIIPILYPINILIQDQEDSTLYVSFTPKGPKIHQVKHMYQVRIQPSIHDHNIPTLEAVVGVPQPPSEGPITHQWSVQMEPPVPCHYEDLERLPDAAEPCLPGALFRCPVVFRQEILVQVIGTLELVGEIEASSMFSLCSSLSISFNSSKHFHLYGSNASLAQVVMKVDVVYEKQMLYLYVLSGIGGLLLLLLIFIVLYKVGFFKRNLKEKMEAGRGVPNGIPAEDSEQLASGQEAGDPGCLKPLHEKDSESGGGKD

A further assay addresses T2, rhesus CD11a (rhesus, UniProt H9Z8N3 26-1169).
T2 construct: whole, on cells; On rhesus peripheral blood lymphocytes or leukocytes; also called rhCD11a
T2 sequence: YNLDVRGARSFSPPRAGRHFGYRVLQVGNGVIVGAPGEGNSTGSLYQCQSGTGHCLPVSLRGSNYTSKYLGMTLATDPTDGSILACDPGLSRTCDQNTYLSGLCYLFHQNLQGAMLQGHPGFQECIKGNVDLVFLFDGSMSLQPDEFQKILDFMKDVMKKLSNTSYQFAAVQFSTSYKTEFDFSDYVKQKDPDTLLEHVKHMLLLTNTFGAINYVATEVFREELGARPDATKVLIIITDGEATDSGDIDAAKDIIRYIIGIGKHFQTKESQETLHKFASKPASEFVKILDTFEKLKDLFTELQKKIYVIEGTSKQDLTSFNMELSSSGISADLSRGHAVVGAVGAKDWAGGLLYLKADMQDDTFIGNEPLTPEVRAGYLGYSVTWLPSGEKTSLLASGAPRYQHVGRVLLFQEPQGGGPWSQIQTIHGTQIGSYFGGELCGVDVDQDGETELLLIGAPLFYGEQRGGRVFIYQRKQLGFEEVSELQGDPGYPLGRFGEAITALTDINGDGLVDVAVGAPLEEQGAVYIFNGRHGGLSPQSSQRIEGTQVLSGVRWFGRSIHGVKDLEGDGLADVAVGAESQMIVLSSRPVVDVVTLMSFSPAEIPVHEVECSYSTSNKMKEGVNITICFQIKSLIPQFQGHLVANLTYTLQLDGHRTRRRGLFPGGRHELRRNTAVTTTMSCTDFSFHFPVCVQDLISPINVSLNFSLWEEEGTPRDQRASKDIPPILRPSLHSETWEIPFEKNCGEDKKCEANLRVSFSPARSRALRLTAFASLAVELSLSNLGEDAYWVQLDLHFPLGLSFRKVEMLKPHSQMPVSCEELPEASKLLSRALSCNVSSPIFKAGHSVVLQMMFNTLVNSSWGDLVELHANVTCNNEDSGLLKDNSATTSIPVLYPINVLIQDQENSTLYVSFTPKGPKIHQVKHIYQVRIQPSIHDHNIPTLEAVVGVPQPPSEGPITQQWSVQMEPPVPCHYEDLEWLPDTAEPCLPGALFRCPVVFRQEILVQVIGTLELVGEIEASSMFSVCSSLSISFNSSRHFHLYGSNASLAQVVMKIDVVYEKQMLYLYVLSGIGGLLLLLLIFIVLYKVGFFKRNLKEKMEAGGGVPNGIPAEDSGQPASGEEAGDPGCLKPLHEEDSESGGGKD
The experiment in a line: rhesus PBL binding.

The target in assay [2] is T1, human CD11a. Nature of the assay: FACScan, Jurkat cells. The procedure: as §1
The source holds these as a separate data set.

Numbering of substitutions follows the chain as printed.

B1: HuIgG1 mutant GluL93Ala (antibody, V domains shown)
VH: EVQLVESGGGLVQPGGSLRLSCAASGYSFTGHWMNWVRQAPGKGLEWVGMIHPSDSETRYNQKFKDRFTISVDKSKNTLYLQMNSLRAEDTAVYYCARGIYFYGTTYFDYWGQGTLVTVSS
VL: DIQMTQSPSSLSASVGDRVTITCRASKTISKYLAWYQQKPGKAPKLLIYSGSTLQSGVPSRFSGSGSGTDFTLTISSLQPEDFATYYCQQHNAYPLTFGQGTKVEIKR
notes: HuIgG1 mutant, human IgG1; Kabat numbering
Regarding B1, the “Var.EC50/HuIgG1 EC50” value is 1.7 ratio in the assay with human CD11a [1] and 2.9 ratio with rhesus CD11a.

B2: humanized MHM24 F(ab)-8 (Fab, V domains shown)
VH: B1 VH
VL: B1 VL with A93E
notes: F(ab) from E. coli with human kappa CL and CH1
As for B2, the “EC50 F(ab)/EC50 F(ab)-2” value with human CD11a [2] came out at 0.004 ratio.

B3: HuIgG1 mutant LysH64Ala (antibody, V domains shown)
VH: B1 VH with K65A
VL: DIQMTQSPSSLSASVGDRVTITCRASKTISKYLAWYQQKPGKAPKLLIYSGSTLQSGVPSRFSGSGSGTDFTLTISSLQPEDFATYYCQQHNEYPLTFGQGTKVEIK
notes: as for B1
With B3, the “Var.EC50/HuIgG1 EC50” value stood at 2.5 ratio in the assay with human CD11a [1] and 1.2 ratio with rhesus CD11a.

B4: humanized MHM24 F(ab)-3 (Fab, V domains shown)
VH: B1 VH with Y27F, F68A, K74N
VL: B3 VL with T53S, Q55E
notes: F(ab) from E. coli; F(ab)-2 plus PheH67Ala
With B4, the “EC50 F(ab)/EC50 F(ab)-2” value with human CD11a [2] amounted to 1.2 ratio.

B5: humanized MHM24 F(ab)-2 (Fab, V domains shown)
VH: B1 VH with Y27F, K74N
VL: B3 VL with T53S, Q55E
notes: F(ab) from E. coli
Consider B5, for which, in the assay with human CD11a [2], the EC50 (usually the concentration that produces a half-maximal response) worked out at 0.771 µg/mL, the “EC50 F(ab)/EC50 F(ab)-2” value stood at 1 ratio and the “fold weaker EC50 than chimeric IgG1” value was 148 fold.

B6: HuIgG1 mutant LysH73Arg (antibody, V domains shown)
VH: B1 VH with K74R
VL: B3 VL
notes: as for B1
Consider B6, for which the “Var.EC50/HuIgG1 EC50” value was determined as 4.6 ratio with human CD11a [1] and 5.5 ratio with rhesus CD11a.

B7: HuIgG1 mutant ThrH30Ala (antibody, V domains shown)
VH: B1 VH with T30A
VL: B3 VL
notes: as for B1
On to B7, for which the “Var.EC50/HuIgG1 EC50” value with human CD11a [1] is 1.7 ratio; with rhesus CD11a, 1.3 ratio.

B8: HuIgG1 mutant SerH55Ala (antibody, V domains shown)
VH: B1 VH with S56A
VL: B3 VL
notes: as for B1
Consider B8, for which the “Var.EC50/HuIgG1 EC50” value with human CD11a [1] and with rhesus CD11a was 1.3 ratio in each case.

B9: HuIgG1 mutant GlyH31Ala (antibody, V domains shown)
VH: B1 VH with G31A
VL: B3 VL
notes: as for B1
With B9, the “Var.EC50/HuIgG1 EC50” value with human CD11a [1] was found to be 1.2 ratio; with rhesus CD11a it was 2.4 ratio.

B10: HuIgG1 mutant AspH65Ala (antibody, V domains shown)
VH: B1 VH with D66A
VL: B3 VL
notes: as for B1
Consider B10, for which the “Var.EC50/HuIgG1 EC50” value with human CD11a [1] was 0.8 ratio; in the assay with rhesus CD11a it was 1.1 ratio.

B11: HuIgG1 mutant AspH54Glu (antibody, V domains shown)
VH: B1 VH with D55E
VL: B3 VL
notes: HuIgG1 mutant, human IgG1; Kabat numbering; also called AspH54 change to Glu
Regarding B11, the “Mutant EC50/HuIgG1 EC50” value in the assay with human CD11a [2] is 16 ratio.

B12: humanized MHM24 F(ab)-7 (Fab, V domains shown)
VH: B1 VH with K76S, N77S
VL: B3 VL
notes: F(ab) from E. coli
Turning to B12, in the assay with human CD11a [2], the “EC50 F(ab)/EC50 F(ab)-2” value stood at 0.004 ratio and the “fold improvement in binding over F(ab)-6” value worked out at 3 fold.

B13: HuIgG1 mutant L1 (antibody, V domains shown)
VH: B1 VH
VL: B1 VL with K27A, T28A, S30A, K31A, A93E
notes: as for B1
Consider B13, for which the “Var.EC50/HuIgG1 EC50” value with human CD11a [1] stood at 1.3 ratio; with rhesus CD11a it was 1 ratio.

B14: humanized MHM24 F(ab)-4 (Fab, V domains shown)
VH: B1 VH with Y27F, V72R, K74N
VL: B3 VL with T53S, Q55E
notes: F(ab) from E. coli; F(ab)-2 plus ValH71Arg
As for B14, in the assay with human CD11a [2], the “EC50 F(ab)/EC50 F(ab)-2” value came out at 2.9 ratio.

B15: HuIgG1 mutant HisH52Ala (antibody, V domains shown)
VH: B1 VH with H52A
VL: B3 VL
notes: as for B1
As for B15, the figures for the “Var.EC50/HuIgG1 EC50” value with human CD11a [1] and in the assay with rhesus CD11a were 1.5 ratio and 0.7 ratio, respectively.

B16: humanized MHM24 F(ab)-6 (Fab, V domains shown)
VH: B1 VH with Y27F, K76S, N77S
VL: B3 VL
notes: F(ab) from E. coli
For B16, in the assay with human CD11a [2], the “EC50 F(ab)/EC50 F(ab)-2” value amounted to 0.012 ratio and the “fold improvement in binding over F(ab)-5” value was 4 fold.

B17: HuIgG1 mutant LysH62Ala (antibody, V domains shown)
VH: B1 VH with K63A
VL: B3 VL
notes: as for B1
As to B17, the “Var.EC50/HuIgG1 EC50” value was 1.8 ratio with human CD11a [1] and 4.9 ratio with rhesus CD11a.

B18: HuIgG1 mutant ArgH58Ala (antibody, V domains shown)
VH: B1 VH with R59A
VL: B3 VL
notes: as for B1
Take B18: the “Var.EC50/HuIgG1 EC50” value was 1.1 ratio with human CD11a [1] and 3.3 ratio in the assay with rhesus CD11a.

B19: HuIgG1 mutant SerL50Ala (antibody, V domains shown)
VH: B1 VH
VL: B1 VL with S50A, A93E
notes: as for B1
Turning to B19, the “Var.EC50/HuIgG1 EC50” value was found to be 1.2 ratio with human CD11a [1] and 2.7 ratio in the assay with rhesus CD11a.

B20: HuIgG1 mutant H2A2 (antibody, V domains shown)
VH: B1 VH with S54A, S56A
VL: B3 VL
notes: as for B1
In the case of B20, the “Var.EC50/HuIgG1 EC50” value with human CD11a [1] was 1.9 ratio; in the assay with rhesus CD11a, 1.1 ratio.

B21: HuIgG1 mutant ThrL53Ala (antibody, V domains shown)
VH: B1 VH
VL: B1 VL with T53A, A93E
notes: as for B1
B21: the “Var.EC50/HuIgG1 EC50” value was 0.9 ratio in the assay with human CD11a [1] and 0.7 ratio with rhesus CD11a.

B22: HuIgG1 mutant SerH55Gln (antibody, V domains shown)
VH: B1 VH with S56Q
VL: B3 VL
notes: as for B1
On to B22, for which the figures for the “Var.EC50/HuIgG1 EC50” value in the assay with human CD11a [1] and in the assay with rhesus CD11a were 2.9 ratio and 6.7 ratio, respectively.

B23: HuIgG1 mutant SerH53Ala (antibody, V domains shown)
VH: B1 VH with S54A
VL: B3 VL
notes: as for B1
With B23, the “Var.EC50/HuIgG1 EC50” value with human CD11a [1] came out at 1.8 ratio; in the assay with rhesus CD11a it was 0.7 ratio.

B24: HuIgG1 mutant GlnH61Ala (antibody, V domains shown)
VH: B1 VH with Q62A
VL: B3 VL
notes: as for B1
B24: the “Var.EC50/HuIgG1 EC50” value came to 4.1 ratio in the assay with human CD11a [1] and 5.3 ratio with rhesus CD11a.

B25: humanized MHM24 F(ab)-5 (Fab, V domains shown)
VH: B1 VH with Y27F, K76S, N77S
VL: B3 VL with T53S, Q55E
notes: F(ab) from E. coli
For the molecule B25, in the assay with human CD11a [2], the “EC50 F(ab)/EC50 F(ab)-2” value was determined as 0.043 ratio and the “fold improvement in binding over F(ab)-2” value was 23 fold.

B26: HuIgG1 mutant H2A3 (antibody, V domains shown)
VH: B1 VH with H52A, S56A
VL: B3 VL
notes: as for B1
Turning to B26, the “Var.EC50/HuIgG1 EC50” value with human CD11a [1] was 4.6 ratio; with rhesus CD11a, 1.3 ratio.
